From the supplement of paper PMC10567573

B1: CDC14A (parent)
chain: LWVQGDIFRSKLKNRPSSEGSINK
B2: CCDC70 (parent)
chain: FSFKVSRWMGLACFRSLAASSPSI

Variants of: B1
Experiment: protein stability index of a GFP-peptide fusion (GPS, HEK-293T) (PSI 1-6); higher = more stable
Settings: c terminus: a fixed tail appended
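Further: lentivirally expressed fusions sorted by FACS into six bins by GFP to DsRed ratio, PSI derived from sequencing read proportions per bin multiplied by bin number.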

| Variant | protein stability index |
| --- | --- |
| G20D | 2.64 |
| G20R | 2.76 |
| G20S | 2.58 |
| G20P | 2.04 |
| G20L | 2.69 |
| G20E | 3.9 |
| G20W | 2.03 |
| G20M | 2.73 |
| G20A | 2.06 |
| G20N | 2.76 |
| G20C | 2.82 |
| G20K | 3.44 |
| G20V | 2.23 |
| G20H | 2.74 |
| G20I | 2.61 |
| G20F | 2.3 |
| G20Q | 2.61 |
| G20T | 2.85 |
| K24A | 2.31 |
| K24I | 1.8 |
| K24L | 1.91 |
| K24M | 2.08 |
| K24G | 2.26 |
| K24V | 1.63 |
| K24D | 2.79 |
| K24Y | 1.73 |

| Variant | protein stability index |
| --- | --- |
| K24N | 2.79 |
| K24C | 1.93 |
| K24T | 2.83 |
| K24P | 2.46 |
| K24F | 1.75 |
| K24R | 2.52 |
| K24Q | 2.41 |
| K24E | 2.73 |
| K24H | 2.06 |
| K24S | 2.37 |
| K24W | 2.47 |
| I22H | 3.32 |
| I22P | 2.63 |
| I22M | 3.02 |
| I22S | 3.88 |
| I22L | 2.79 |
| I22Y | 2.85 |
| I22D | 3.2 |
| I22E | 2.97 |
| I22K | 2.06 |
| I22T | 3.39 |
| I22N | 3.05 |
| I22C | 2.59 |
| I22W | 2.33 |
| I22A | 3.1 |
| I22V | 2.81 |

| Variant | protein stability index |
| --- | --- |
| I22R | 3.2 |
| I22G | 3.21 |
| I22F | 2.51 |
| I22Q | 2.71 |
| P16Y | 1.91 |
| P16W | 1.74 |
| S21L | 2.24 |
| S21Y | 2.22 |
| S21Q | 3.15 |
| S21R | 1.73 |
| S21A | 2.77 |
| S21C | 2.64 |
| S21N | 2.18 |
| S21W | 2.42 |
| S21E | 3.65 |
| S21K | 2.42 |
| S21V | 2.41 |
| S21M | 2.15 |
| S21I | 2.08 |
| S21T | 3.13 |
| S21D | 4.21 |
| S21F | 2.46 |
| S21G | 2.84 |
| S21P | 3.06 |
| S21H | 2.41 |
| S18Q | 2.39 |

| Variant | protein stability index |
| --- | --- |
| S18I | 1.84 |
| S18L | 3.55 |
| S18H | 3.27 |
| S18V | 2.25 |
| S18G | 4.75 |
| S18C | 3.17 |
| S18Y | 2.01 |
| S18W | 1.46 |
| S18D | 3.11 |
| S18M | 1.8 |
| S18N | 2.54 |
| S18P | 1.91 |
| S18T | 2.45 |
| S18A | 2.58 |
| S18E | 3.11 |
| S18F | 2.37 |
| S18K | 2.59 |
| S18R | 2.42 |
| N23S | 2.96 |
| N23G | 3.05 |
| N23P | 3.06 |
| N23Q | 2.31 |
| N23R | 2.4 |
| N23H | 2.65 |
| N23F | 1.45 |
| N23A | 2.08 |

| Variant | protein stability index |
| --- | --- |
| N23D | 2.8 |
| N23W | 2.8 |
| N23M | 2.15 |
| N23K | 2.69 |
| N23C | 2.17 |
| N23E | 2.89 |
| N23Y | 1.91 |
| N23T | 3.06 |
| N23L | 2.1 |
| N23I | 2.15 |
| S17Y | 2.08 |
| S17D | 2.85 |
| S17K | 2.45 |
| S17G | 2.87 |
| S17L | 2.63 |
| S17Q | 2.05 |
| S17N | 3.48 |
| S17F | 1.66 |
| S17T | 2.82 |
| S17H | 2.77 |
| S17W | 2.17 |
| S17M | 1.83 |
| S17P | 2.41 |
| S17I | 2.08 |
| S17E | 2.43 |
| S17V | 2.47 |

| Variant | protein stability index |
| --- | --- |
| S17C | 2.89 |
| S17A | 3.12 |
| E19H | 2.36 |
| E19N | 2.48 |
| E19K | 2.21 |
| E19V | 2.17 |
| E19T | 1.88 |
| E19L | 1.97 |
| E19W | 1.88 |
| E19G | 2.24 |
| E19F | 1.7 |
| E19D | 2.88 |
| E19I | 2.24 |
| E19M | 2.02 |
| E19R | 2.35 |
| E19A | 2.33 |
| E19Y | 1.58 |
| E19C | 2.44 |
| E19S | 2.29 |
| E19P | 1.95 |
| E19Q | 2.49 |

Variants of: B2
Experiment: as above
Settings: c terminus: a fixed tail appended

| Variant | protein stability index |
| --- | --- |
| R15W | 4.5 |
| R15I | 2.04 |
| R15L | 3.13 |
| R15Y | 2.87 |
| R15Q | 5.05 |
| R15H | 3.52 |
| I24A | 2.67 |
| I24M | 2.23 |
| I24N | 2.33 |
| I24P | 1.41 |
| I24L | 3 |
| I24Y | 3.49 |
| I24W | 3.1 |
| A12E | 2.75 |
| A12C | 3.26 |
| A12D | 2.87 |
| A12V | 1.98 |
| A12F | 2.57 |
| A12H | 1.57 |
| A12I | 3.43 |
| A12Y | 2.87 |
| A12M | 3.25 |
| V5R | 3.55 |

| Variant | protein stability index |
| --- | --- |
| V5Q | 3.04 |
| V5F | 2.74 |
| V5E | 1.29 |
| V5T | 2.77 |
| V5D | 1.73 |
| V5A | 3.24 |
| S20T | 2.31 |
| S20C | 3.42 |
| S20V | 2.6 |
| S20K | 3.32 |
| S20N | 2.46 |
| S20H | 1.81 |
| S20D | 3.1 |
| S20G | 2.51 |
| A19Y | 3.36 |
| A19S | 3.28 |
| A19L | 3.58 |
| A19W | 3.71 |
| A19V | 3.78 |
| A19M | 3.27 |
| A19H | 2.03 |
| A19F | 1.36 |
| A19E | 3.77 |

| Variant | protein stability index |
| --- | --- |
| A19N | 3.2 |
| A19R | 3.39 |
| G10P | 4.98 |
| G10K | 3.17 |
| G10M | 4.54 |
| G10F | 1.86 |
| G10E | 3.35 |
| G10S | 2.98 |
| G10A | 3.75 |
| G10R | 2.37 |
| A18Y | 3.5 |
| A18M | 2.78 |
| A18R | 2.21 |
| A18T | 2.82 |
| A18F | 2.74 |
| M9P | 1.36 |
| M9A | 2.28 |
| M9F | 2.95 |
| M9C | 3.07 |
| M9E | 2.5 |
| S16W | 2.79 |
| S16K | 2.18 |
| S16Y | 3.27 |

| Variant | protein stability index |
| --- | --- |
| S16D | 2.86 |
| S16Q | 2.42 |
| S16H | 3.13 |
| S16I | 1.98 |
| S16E | 4.34 |
| W8I | 2.9 |
| W8M | 1.77 |
| W8C | 2.07 |
| W8A | 1.12 |
| W8G | 3.55 |
| W8R | 1.81 |
| W8Y | 3.02 |
| W8H | 2.82 |
| W8V | 3.21 |
| W8D | 1.76 |
| S6N | 3.31 |
| S6V | 4.41 |
| S6Y | 2.88 |
| S6K | 2.24 |
| S6F | 1.69 |
| S6G | 2.88 |
| S6T | 2.43 |
| S6D | 2.35 |

| Variant | protein stability index |
| --- | --- |
| S6P | 2.51 |
| S6L | 2.29 |
| S6M | 2.17 |
| S6W | 3.02 |
| S6A | 2.99 |
| S6C | 2.82 |
| F14Q | 1.72 |
| F14S | 1.61 |
| F14A | 3.51 |
| F14L | 2 |
| F14N | 2.56 |
| F14D | 2.84 |
| F3L | 4.25 |
| F3D | 1.63 |
| F3S | 2.6 |
| F3A | 3.33 |
| F3C | 2.74 |
| F3W | 1.82 |
| F3Q | 1.92 |
| F3H | 1.87 |
| F3V | 1.38 |
| S21L | 3.55 |
| S21N | 2.04 |

| Variant | protein stability index |
| --- | --- |
| S21Y | 1.82 |
| S21I | 3.37 |
| S21E | 3.18 |
| S21P | 3.96 |
| S21G | 2.62 |
| S2M | 2.1 |
| S2H | 1.33 |
| S2Y | 2.62 |
| S2A | 1.82 |
| S2G | 1.56 |
| S2I | 3.26 |
| S2Q | 3.39 |
| K4A | 2.38 |
| K4W | 4.77 |
| K4V | 3.11 |
| K4Y | 3.24 |
| K4R | 2.22 |
| K4L | 3.31 |
| K4H | 2.73 |
| K4D | 3.56 |
| K4C | 3.35 |
| K4M | 2.34 |
| K4I | 3.39 |

| Variant | protein stability index |
| --- | --- |
| S23T | 2.67 |
| S23K | 2.68 |
| S23H | 1.65 |
| S23L | 4.22 |
| S23Q | 3.59 |
| S23C | 2.6 |
| S23Y | 2.1 |
| L11M | 3.73 |
| L11A | 3.24 |
| L11E | 1.76 |
| R7C | 3.09 |
| R7W | 3.02 |
| R7G | 1.65 |
| R7E | 3.4 |
| R7F | 2.69 |
| R7Q | 2.19 |
| R7N | 2.53 |
| C13I | 2.56 |
| C13P | 1.82 |
| C13V | 2.52 |
| C13Y | 3.24 |
| C13S | 2.66 |
| C13F | 3.96 |

| Variant | protein stability index |
| --- | --- |
| C13W | 2.35 |
| P22R | 2.46 |
| P22M | 3.36 |
| P22V | 2.95 |
| P22W | 3.4 |
| P22Y | 2.86 |
| P22C | 2.36 |
| P22H | 1.85 |
| F1I | 1.68 |
| F1R | 2.08 |
| F1E | 3.1 |
| F1G | 2.57 |
| F1A | 2.36 |
| F1C | 2.38 |
| F1T | 2.53 |
| F1P | 2.2 |
| F1D | 1.25 |
| F1M | 4.47 |
| L17I | 1.86 |
| L17S | 1.87 |
| L17H | 2.29 |
| L17V | 2.84 |
